# According to the DeepSol protein solubility set:
# Assay: soluble on expression in E. coli; label from the status in PepcDB or PDB records
row,Sequence,soluble on expression in E. coli
1,MAHHHHHHMRRYVKPSNIVGANISHPVDIFKMTVEHRVQCGSCHKVRYTRETDCCLSLPIPLDPNLKNSDGNPKQTEEEIFASRPHISLDACLGSLMQATDIDCRCSACGIPVTYCKTTRLRTFPDVLPIFLRRAQFDMETMSVRKLDVFVDVPLELDLEFLRGKGLQSDEVSMPEAREDLPHKPTSSSMKTVDEEALAMLLSMGIEETVARYALLQTGMNAERAVDYVFSRENIAEEAGLAEISTTASESQPVHVLDGPAKYRLHAMISHVGASAKTGHYVCHICDAQTGKWLLFNDEKVAESLNPPFSMAFLYFYKRVGK,soluble
2,MADFAARLNKLFDTVHPPGRKPHTNAEVAAALIADGHQISKPYISQLRSGQRTNPSDETVAAFARFFKVKPDYFFNDIYAAKIDHDLELLSQLQGYGLRKLSSRAFDLSEESQNLLTTMAEKLRASEGLPEVPPDASR,not soluble
3,MAMSRQCTHYGRWPQHGFTSLKKLTPQSVTSRIQPGTDVIVCAEMDEHWGYFCAKKRQRWLVDTYDKIRRTDVDHVFGERTLATLERLLSLLSAFEVAVWMTDGWPLYESRLKGKLHVISKRYTQRIERHNLNLRQHLARLVRKSLSFSKSVELHSGIILEHHHHHH,not soluble
4,MEKNWYVVHTYSGYENKVKANLEKRVESMGMQDKIFRVVVPEEEETDIKNGKKKVVKKKVFPGYVLVEIVMTDDSWYVVRNTPGVTGFVGSAGSGSKPTPLLPGEAETILKRMGMDERKTDIDFELKETVKVIDGPFANFTGSIEEIDYDKSKVKVFVNMFGRETPVELEFTQIDKLLEHHHHHH,not soluble
5,MTQNHSASLLVELLTEELPPKALARLSDAFAEGIAQRLAARDLIEGELAFERYATPRRLAVVVQNVRAVAPERQVREKVLPVSVALDAQGKPTAPLAKKLAALGHPNLSIADLERAHDGKAEAFFVNYASPGATLAEGLQAALDETLAKLPIPKVMTYQRPDGTDVQFVRPVHRLSALHDDRIVPVCAFGIDAGDTTLGHRFLSDGLVAIQHANAYADTLRDKGRVLAHFAGRKEAIRAQLEANAGGDQVVMPEALLDEVTSLVEWPVVYPCRFEDEFLQVPQECLILTMQTNQKYFALTDAAGKLRSRFLIVSNIETKTPDEIVEGNERVVRPRLADAKFFFEQDKKKPLADRVPLLANVVYHNKLGSQLARIERLETLAGEIAPAIGADATVAIRAARLAKADLLTDMVGEFPELQGTMGTYYARHDGEAEDVAIACSEHYQPRFSGDALPTTPVSTAVALADKLETIVGIWGIGLAPTGEKDPFALRRHALGVLRLLLEKQLPLDLVWLLRTTYERFAAVPDVAESTDAIHAFFVERLRGLLRERGYTAGEVDAVLSLNPTR,not soluble
6,MPLIAGIDIGNATTEVALASDYPQARAFVASGIVATTGMKGTRDNIAGTLAALEQALAKTPWSMSDVSRIYLNEAAPVIGDVAMETITETIITESTMIGHNPQTPGGVGVGVGTTIALGRLATLPAAQYAEGWIVLIDDAVDFLDAVWWLNEALDRGINVVAAILKKDDGVLVNNRLRKTLPVVDEVTLLEQVPEGVMAAVEVAAPGQVVRILSNPYGIATFFGLSPEETQAIVPIARALIGNRSAVVLKTPQGDVQSRVIPAGNLYISGEKRRGEADVAEGAEAIMQAMSACAPVRDIRGEPGTHAGGMLERVRKVMASLTGHEMSAIYIQDLLAVDTFIPRKVQGGMAGECAMENAVGMAAMVKADRLQMQVIARELSARLQTEVVVGGVEANMAIAGALTTPGCAAPLAILDLGAGSTDAAIVNAEGQITAVHLAGAGNMVSLLIKTELGLEDLSLAEAIKKYPLAKVESLFSIRHENGAVEFFREALSPAVFAKVVYIKEGELVPIDNASPLEKIRLVRRQAKEKVFVTNCLRALRQVSPGGSIRDIAFVVLVGGSSLDFEIPQLITEALSHYGVVAGQGNIRGTEGPRNAVATGLLLAGQAN,soluble
7,MPRTVTHNPDSPNNDDVLAASEKWDACKPPYTSAHMKICVAAAKIILAASGVARCSKYEKENYLRIDFSKAGKVTFYAEFPKKMGLKGKKLGEWPELVIQLAREKALGMADGGLRAESVHAALEMYRDDPKPK,not soluble
8,MAHHHHHHMQSDARELNPGRADFWEHFYDQEDGRLRQKELHHRKAHEIVERGSLMNHYEWFMQYAMYEAALKACLRAVPTVLSKDGATRILHMGCGNSDFCDHVEGLLSDLHPVPSSSSRASEVLNVDICESIVAHLALHFPSRLYAVGNCCDLHVSSSPSMPFSSNAAWYSRDPALRLRKVLQSSVDVVFDKGTADALLSSFAGEYNPNMEAYMGEALKVLRPGGLLFLISINSEDVLSPYALSADDGLKSFHLAYTDVIELGAHDLRHLRVETLGSRYSCYGYAVVASAVAE,soluble
9,MGSDKIHHHHHHLTDLKDALRTEALDAGFAKMGVCSPNAVPETAARLKAFVDAGFHGQMGWMAERMHWRGDASALWPEAKSVVMLAEPYTPDSDPLDALARKDRATISVYAQGRDYHDLVKKRLKRVGRWLLAQCPGEQIKVFVDTAPVMEKPLAQAAGLGWQGKHTNLLARDLGNWVFLGAIFTTVELPIDEPEAEHCGSCTACLDICPTNAFPAPFQLDARKCISYLTIEHKGPVDLALRAKLGNRIYGCDDCLAVCPWNKFAQTARDIRYAPRDDLRSPLLADLAALDDAGFRARFSGSPIKRIGRDRFVRNILYAIGNSGQAKLVDAARPLTDDPDVAVADAARWAMERLL,not soluble
10,MLDGLVVGGGLAGLTAARVLTRAGRRVRVLEAAPEVGGRVRSRELEGFTLDAGFQVLFPAYPAVRRQLNLDALDLVPLPSAAALRRGAREDVLGSPLDDLASLPSTLKSGALTLGDKLRVARLAASLRTPAAHELLIGSDESTESFLRGQGFSEAALDHFFRPFFGGIFLRRDLATSARLFRYYFRMLMDGGAALPRRGMGELSRQLAQGSDLLTGVRVSRLLPRPGYVTAVTSAGEIDARQVIVATEAPTASDLTGEALSRGALSSTYLYYATPQRISGQHRLLLNAETGLINNAQWTSLAVPGRAPTGQHLLTVTVLGLPDLDDASLDARVRGELTRWYGAEAVGTLRLLMLERIPYAQFEQPAGYAATLPGHATSLPGVLLASEITSMSGIQGALESGEKAAAIVLGDLAALSRPRGALEHHHHHH,not soluble
11,KGHLTRLGLEFFDQPAVPLARAFLGQVLVRRLPNGTELRGRIVETEAYLGPEDEAAHSRGGRQTPRNRGMFMKPGTLYVYIIYGMYFCMNISSQGDGACVLLRALEPLEGLETMRQLRSTLRKGTASRVLKDRELCSGPSKLCQALAINKSFDQRDLAQDEAVWLERGPLEPSEPAVVAAARVGVGHAGEWARKPLRFYVRGSPWVSVVDRVAEQDTQA,soluble
12,MAHHHHHHMSKKNKSFYENDGSGRDTFVNYAGAYWMNPLPAGTFFKSRGHLTQSSVPTENGTSLVMDDSTPYPGRTLFGKSRYGTTILAAGQVATLDAPADSQSGHSAGMGSTSRSTANPLAGTDADAQEFDGEATALEHISFDVSNPERRLRQPGHSTTGLEGTGGGSTYNGVKEPWTAPNAVDSTLLRLAPAYESTCHYHLRTGLFYTEDAAPPHEMTLPDKGVTWGRSRYY,soluble
13,MTVDSSMSSGYCSLDEELEDCFFTAKTTFFRNAQSKHLSKNVCKPVEETQRPPTLQEIKQKIDSYNTREKNCLGMKLSEDGTYTGFIKVHLKLRRPVTVPAGIRPQSIYDAIKEVNLAATTDKRTSFYLPLDAIKQLHISSTTTVSEVIQGLLKKFMVVDNPQKFALFKRIHKDGQVLFQKLSIADRPLYLRLLAGPDTEVLSFVLKENETGEVEWDAFSIPELQNFLTILEKEEQDKIQQVQKKYDKFRQKLEEALRESQGKPG,not soluble
14,MHHHHHHSSGVDLGTENLYFQSMMASQNSFRIEYDTFGELKVPNDKYYGAQTVRSTMNFKIGGVTERMPTPVIKAFGILKRAAAEVNQDYGLDPKIANAIMKAADEVAEGKLNDHFPLVVWQTGSGTQTNMNVNEVISNRAIEMLGGELGSKIPVHPNDHVNKSQSSNDTFPTAMHIAAAIEVHEVLLPGLQKLHDALDAKSKEFAQIIKIGRTHTQDAVPLTLGQEFSGYVQQVKYAMTRIKAAMPRIYELAAGGTAVGTGLNTRIGFAEKVAAKVAALTGLPFVTAPNKFEALAAHDALVELSGAMNTTACSLMKIANDIRFLGSGPRSGLGELILPENEPGSSIMPGKVNPTQCEAMTMVAAQVMGNHVAVTVGGSNGHFELNVFKPMMIKNVLHSARLLGDASVSFTENCVVGIQANTERINKLMNESLMLVTALNPHIGYDKAAKIAKTAHKNGSTLKETAIELGYLTAEQFDEWVKPKDMLGPK,soluble
15,MGSDKIHHHHHHMPTLKEKIIQESQRLGIDKIGFTHAEPFIELEDSLHEQRERGYNSGFEHQNVEERIYPEKTFEHPKSIISIALAYPTKAQEKMPRDEKRGQFARASWGIDYHHILQDRLQKLIAFIEEQAATEAEKEHWRFRPQVDTGEYVDTAVAQRAGLGFIGKNGLLITEEFGSFVYLGEVTTNIQFEPDEPVPNGCGDCTRCITGCPTGALLGDGRMNAQKCLSYQTQTKGMMPEDYRKKMRNVIYGCDICQLVCPYNKGKDFHFHEEMEPKIEEVYPKLAPLLTISNKEFKQQFGHLAGSWRGKKPLQRNALIALANLGGREAIPQIILCLNDQRPVIRGTAAWSLGQLAKREPEQSLEALNYLLSVETEEEVIEEAQKAIHLLTSKKGSRSTE,not soluble
16,MAASAWCCLRCCRDGGTGHIPLKEMPAVQLDTQHMGTDVVIVKNGRRICGTGGCLASAPLHQNKSYFEFKIQSTGIWGIGVATQKVNLNQIPLGRDMHSLVMRNDGALYHNNEEKNRLPANSLPQEGDVVGITYDHVELNVYLNGKNMHCPASGIRGTVYPVVYVDDSAILDCQFSEFYHTPPPGFEKILFEQQIF,soluble
17,MRSMKVFISIGVVLSVVNCIFFDHGDSSDGSYSDSSGEGRGHHHKHGPRPPRPNRPPRPPPATPPPTTPAPSCPGGWSLIHRRRGPWCIQVFNGAAGLEGSNNACRAQGAVLSSVENAQERETIARLGLEKMLPTGWKYGTIRVGLRKNSQGAPWYNTDGSTDANNLEGVLWSPAEPRNGNWGGVQLNCATMWLWGGIFEGGRIHGQFFTNICLANNPNDRYRGYVCGKPA,not soluble
18,DWNNQSIVKTGERQHGIHIQGSDPGGVRTASGTTIKVSGRQAQGILLENPAAELQFRNGSVTSSGQLSDDGIRRFLGTVTVKAGKLVADHATLANVGDTWDDDGIALYVAGEQAQASIADSTLQGAGGVQIERGANVTVQRSAIVDGGLHIGALQSLQPEDLPPSRVVLRDTNVTAVPASGAPAAVSVLGASELTLDGGHITGGRAAGVAAMQGAVVHLQRATIRRGDALAGGAVPGGAVPGGAVPGGFGPGGFGPVLDGWYGVDVSGSSVELAQSIVEAPELGAAIRVGRGARVTVPGGSLSAPHGNVIETGGARRFAPQAAPLSITLQAGAHAQGKALLYRVLPEPVKLTLTGGADAQGDIVATELPSIPGTSIGPLDVALASQARWTGATRAVDSLSIDNATWVMTDNSNVGALRLASDGSVDFQQPAEAGRFKVLTVNTLAGSGLFRMNVFADLGLSDKLVVMQDASGQHRLWVRNSGSEPASANTLLLVQTPLGSAATFTLANKDGKVDIGTYRYRLAANGNGQWSLVGAKAPP,soluble
